# Measured values from article PMC6747400, “Mismatch Recognition by Saccharomyces cerevisiae Msh2-Msh6: Role of Structure and Dynamics”.
# Changes are numbered by the printed parent chain.
# B1: 6-MI:C (dsDNA)
# DNA 1: TATGCAGTCACTATGAATCAACTACTTAGATGGT
# DNA 2: ACCATCTAAGTAGTTGATTCATAGTGACTGCATA
# modifications: 6-MI replaces G15 of strand 1 (F, written G)
# B2: 6-MI_A:C (dsDNA)
# DNA 1: B1 DNA 1
# DNA 2: B1 DNA 2 with T19C
# modifications: 6-MI replaces G15 of strand 1 (F, written G)
# B3: 6-MI:G (dsDNA)
# DNA 1: B1 DNA 1
# DNA 2: B1 DNA 2 with C20G
# modifications: 6-MI replaces G15 of strand 1 (F, written G)
# B4: G:T_AF594 (dsDNA)
# DNA 1: B1 DNA 1
# DNA 2: B1 DNA 2 with C20T
# modifications: 5' amino C6 on strand 1
# B5: G:C_AF647 (dsDNA)
# DNA 1: B1 DNA 1
# DNA 2: B1 DNA 2
# modifications: 5' amino C6 on strand 1
# B6: A:A_6-MI (dsDNA)
# DNA 1: B1 DNA 1 with T26A
# DNA 2: B1 DNA 2
# modifications: 6-MI replaces G10 of strand 2 (F, written G)
# B7: 6-MI_A:A (dsDNA)
# DNA 1: B1 DNA 1
# DNA 2: B1 DNA 2 with T19A
# modifications: 6-MI replaces G15 of strand 1 (F, written G)
# B8: G:G end-labeled (dsDNA)
# DNA 1: B1 DNA 1
# DNA 2: B1 DNA 2 with C20G
# modifications: 5' amino C6
# B9: +T_AF594 (dsDNA)
# DNA 1: B1 DNA 1
# DNA 2: ACCATCTAAGTAGTTGATTCTAGTGACTGCATA
# modifications: 5' amino C6 on strand 1
# B10: T:T_6-MI (dsDNA)
# DNA 1: B1 DNA 1
# DNA 2: B1 DNA 2 with A21T
# modifications: 6-MI replaces G15 of strand 1 (F, written G)
# B11: 6-MI_A:G (dsDNA)
# DNA 1: B1 DNA 1
# DNA 2: B1 DNA 2 with T19G
# modifications: 6-MI replaces G15 of strand 1 (F, written G)
# B12: +T_6-MI (dsDNA)
# DNA 1: B1 DNA 1
# DNA 2: B9 DNA 2
# modifications: 6-MI replaces G15 of strand 1 (F, written G)
# B13: T:G_6-MI (dsDNA)
# DNA 1: B1 DNA 1
# DNA 2: B1 DNA 2 with A21G
# modifications: 6-MI replaces G15 of strand 1 (F, written G)
# B14: 6-MI:T (dsDNA)
# DNA 1: B1 DNA 1
# DNA 2: B1 DNA 2 with C20T
# modifications: 6-MI replaces G15 of strand 1 (F, written G)
# B15: T:C_6-MI (dsDNA)
# DNA 1: B1 DNA 1
# DNA 2: B1 DNA 2 with A21C
# modifications: 6-MI replaces G15 of strand 1 (F, written G)
# B16: 6-MI:A (dsDNA)
# DNA 1: B1 DNA 1
# DNA 2: B1 DNA 2 with C20A
# modifications: 6-MI replaces G15 of strand 1 (F, written G)
# What was measured:
# Msh2;Msh6 [1] = target: T1, Msh2;Msh6 (Saccharomyces cerevisiae;Saccharomyces …, UniProt P25847;Q03834 1-964;1-1242, |); assay: fluorescence anisotropy; Fluorescence/FRET: 10 mM sodium phosphate pH 7.5, 100 mM NaCl, 5 mM MgCl2, 10 C (10 nM DNA for anisotropy); EMSA: 20 mM Tris-Cl pH 7.5, 100 mM NaCl, 5 mM MgCl2, 2% ficoll, 4 C, 10 nM DNA; details: protein: recombinant;recombinant, tags: ;, copies: 1;1, blunt
# T1 sequence (P25847 whole entry, chain 1 of 2): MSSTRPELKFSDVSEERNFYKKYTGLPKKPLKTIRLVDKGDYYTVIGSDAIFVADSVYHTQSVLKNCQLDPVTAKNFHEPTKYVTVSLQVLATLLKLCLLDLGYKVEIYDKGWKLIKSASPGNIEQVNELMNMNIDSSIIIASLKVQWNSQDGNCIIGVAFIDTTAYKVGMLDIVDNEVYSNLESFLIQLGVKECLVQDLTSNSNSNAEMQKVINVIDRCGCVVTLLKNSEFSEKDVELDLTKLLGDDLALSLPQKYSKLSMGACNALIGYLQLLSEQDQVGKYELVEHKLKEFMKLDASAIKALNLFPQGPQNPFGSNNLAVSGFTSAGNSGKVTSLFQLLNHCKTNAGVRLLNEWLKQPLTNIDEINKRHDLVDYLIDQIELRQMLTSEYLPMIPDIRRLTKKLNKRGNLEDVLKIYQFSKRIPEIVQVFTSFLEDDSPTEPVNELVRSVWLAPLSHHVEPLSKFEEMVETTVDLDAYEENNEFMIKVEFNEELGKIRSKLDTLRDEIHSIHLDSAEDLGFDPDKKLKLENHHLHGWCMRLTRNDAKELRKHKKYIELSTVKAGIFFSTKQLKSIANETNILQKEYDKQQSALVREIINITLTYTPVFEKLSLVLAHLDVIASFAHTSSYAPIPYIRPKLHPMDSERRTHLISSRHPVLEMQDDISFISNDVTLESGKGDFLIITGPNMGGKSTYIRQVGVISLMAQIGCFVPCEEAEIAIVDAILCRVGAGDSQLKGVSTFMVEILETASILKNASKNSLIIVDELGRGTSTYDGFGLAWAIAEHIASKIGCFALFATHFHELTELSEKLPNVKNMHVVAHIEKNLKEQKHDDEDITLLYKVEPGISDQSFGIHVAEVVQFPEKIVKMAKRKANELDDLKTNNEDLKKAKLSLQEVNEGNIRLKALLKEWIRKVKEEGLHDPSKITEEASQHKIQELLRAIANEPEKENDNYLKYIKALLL
# T1 sequence (Q03834 whole entry, chain 2 of 2): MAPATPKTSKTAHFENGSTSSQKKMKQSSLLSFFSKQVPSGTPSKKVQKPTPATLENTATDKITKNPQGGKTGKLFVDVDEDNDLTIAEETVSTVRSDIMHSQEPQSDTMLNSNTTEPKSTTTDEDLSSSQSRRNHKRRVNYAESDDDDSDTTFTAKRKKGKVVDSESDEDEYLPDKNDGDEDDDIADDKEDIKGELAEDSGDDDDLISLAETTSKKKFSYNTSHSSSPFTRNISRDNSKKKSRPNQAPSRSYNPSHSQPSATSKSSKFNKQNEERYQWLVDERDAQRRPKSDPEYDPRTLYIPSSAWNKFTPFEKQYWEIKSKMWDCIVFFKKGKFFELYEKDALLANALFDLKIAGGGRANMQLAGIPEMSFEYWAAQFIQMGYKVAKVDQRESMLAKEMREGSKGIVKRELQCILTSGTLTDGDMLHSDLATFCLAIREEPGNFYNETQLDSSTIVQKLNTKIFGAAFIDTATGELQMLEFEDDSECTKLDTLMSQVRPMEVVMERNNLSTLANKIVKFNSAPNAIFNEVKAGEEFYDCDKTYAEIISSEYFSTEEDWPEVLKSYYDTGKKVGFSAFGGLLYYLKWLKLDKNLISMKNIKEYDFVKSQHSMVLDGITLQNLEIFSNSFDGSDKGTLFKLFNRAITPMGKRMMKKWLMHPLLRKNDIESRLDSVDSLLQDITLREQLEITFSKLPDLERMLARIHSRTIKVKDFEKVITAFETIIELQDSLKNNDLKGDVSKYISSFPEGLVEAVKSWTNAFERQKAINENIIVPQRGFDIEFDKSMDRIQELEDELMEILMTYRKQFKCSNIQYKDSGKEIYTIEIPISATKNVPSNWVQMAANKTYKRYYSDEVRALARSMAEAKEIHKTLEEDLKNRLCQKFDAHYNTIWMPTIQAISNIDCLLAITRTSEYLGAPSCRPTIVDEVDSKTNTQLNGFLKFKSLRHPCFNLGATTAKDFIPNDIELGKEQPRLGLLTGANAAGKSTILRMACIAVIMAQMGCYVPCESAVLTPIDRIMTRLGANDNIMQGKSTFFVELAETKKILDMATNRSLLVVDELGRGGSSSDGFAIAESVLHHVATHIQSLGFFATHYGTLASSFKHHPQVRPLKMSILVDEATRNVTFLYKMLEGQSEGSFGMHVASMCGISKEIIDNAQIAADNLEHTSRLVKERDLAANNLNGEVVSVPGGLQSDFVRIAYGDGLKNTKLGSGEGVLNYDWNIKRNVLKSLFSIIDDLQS
# Msh2;Msh6 [2] = target: T1, Msh2;Msh6; assay: fluorescence intensity; Fluorescence/FRET: 10 mM sodium phosphate pH 7.5, 100 mM NaCl, 5 mM MgCl2, 10 C (10 nM DNA for anisotropy); EMSA: 20 mM Tris-Cl pH 7.5, 100 mM NaCl, 5 mM MgCl2, 2% ficoll, 4 C, 10 nM DNA; details: protein: recombinant;recombinant, tags: ;, copies: 1;1, label: 6-MI internal, blunt
# Msh2;Msh6 [3] = target: T1, Msh2;Msh6; assay: fluorescence anisotropy; Figure S2 legend gives 92.1 ± 13.9; Fluorescence/FRET: 10 mM sodium phosphate pH 7.5, 100 mM NaCl, 5 mM MgCl2, 10 C (10 nM DNA for anisotropy); EMSA: 20 mM Tris-Cl pH 7.5, 100 mM NaCl, 5 mM MgCl2, 2% ficoll, 4 C, 10 nM DNA; details: protein: recombinant;recombinant; tags: ;; copies: 1;1; label: 5' Alexa Fluor 647 on strand 1; blunt homoduplex
# Msh2;Msh6 [4] = target: T1, Msh2;Msh6; assay: fluorescence anisotropy; Table 1 prints this value in the intensity column of +T_6-MI; Fluorescence/FRET: 10 mM sodium phosphate pH 7.5, 100 mM NaCl, 5 mM MgCl2, 10 C (10 nM DNA for anisotropy); EMSA: 20 mM Tris-Cl pH 7.5, 100 mM NaCl, 5 mM MgCl2, 2% ficoll, 4 C, 10 nM DNA; details: protein: recombinant;recombinant; tags: ;; copies: 1;1; label: 5' Alexa Fluor 594 on strand 1; blunt, unpaired T14 in strand 1
# Msh2;Msh6 [5] = target: T1, Msh2;Msh6; assay: fluorescence anisotropy; text gives error 6.9; Fluorescence/FRET: 10 mM sodium phosphate pH 7.5, 100 mM NaCl, 5 mM MgCl2, 10 C (10 nM DNA for anisotropy); EMSA: 20 mM Tris-Cl pH 7.5, 100 mM NaCl, 5 mM MgCl2, 2% ficoll, 4 C, 10 nM DNA; details: protein: recombinant;recombinant; tags: ;; copies: 1;1; label: 6-MI internal; blunt, 6-MI:A mismatch
binder,measurement,setting,value
B1,Kd,"Msh2;Msh6 [1]; label: 6-MI internal, 34 bp homoduplex",122 ± 12.1 nM
B2,Kd,Msh2;Msh6 [2]; A16:C mismatch,17.1 ± 4.3 nM
same,Kd,"Msh2;Msh6 [1]; label: 6-MI internal, A16:C mismatch",13.3 ± 3.6 nM
B3,Kd,"Msh2;Msh6 [1]; label: 6-MI internal, 6-MI:G mismatch",10.4 ± 5.8 nM
B4,Kd,"Msh2;Msh6 [1]; label: 5' Alexa Fluor 594 on strand 1, G15:T mismatch",13.3 ± 3.9 nM
B5,Kd,Msh2;Msh6 [3],106 ± 13.9 nM
B6,Kd,Msh2;Msh6 [2]; A26:A mismatch,10.4 ± 2.4 nM
same,Kd,"Msh2;Msh6 [1]; label: 6-MI internal, A26:A mismatch",11.3 ± 3.1 nM
B7,Kd,Msh2;Msh6 [2]; A16:A mismatch,19.1 ± 3.5 nM
same,Kd,"Msh2;Msh6 [1]; label: 6-MI internal, A16:A mismatch",7.9 ± 2 nM
B8,Kd,"Msh2;Msh6 [1]; label: Alexa Fluor 594 or 647, G15:G mismatch",15.6 ± 3.4 nM
B9,Kd,Msh2;Msh6 [4],18.1 ± 2.6 nM
B10,Kd,"Msh2;Msh6 [1]; label: 6-MI internal, T14:T mismatch",77.5 ± 20 nM
B11,Kd,Msh2;Msh6 [2]; A16:G mismatch,11.8 ± 2.8 nM
same,Kd,"Msh2;Msh6 [1]; label: 6-MI internal, A16:G mismatch",9 ± 2.8 nM
B12,Kd,"Msh2;Msh6 [1]; label: 6-MI internal, unpaired T14 in strand 1 (34/33 nt)",16 ± 2.9 nM
B13,Kd,"Msh2;Msh6 [1]; label: 6-MI internal, T14:G mismatch",25.9 ± 1.2 nM
B14,Kd,"Msh2;Msh6 [1]; label: 6-MI internal, 6-MI:T mismatch",13.7 ± 3.4 nM
B15,Kd,"Msh2;Msh6 [1]; label: 6-MI internal, T14:C mismatch",113 ± 18.7 nM
B16,Kd,Msh2;Msh6 [5],25.8 ± 12.3 nM
